Test results published in paper PMC11626169.

T1: GST-HY5 (Arabidopsis thaliana, UniProt O24646 1-168)
T1 sequence: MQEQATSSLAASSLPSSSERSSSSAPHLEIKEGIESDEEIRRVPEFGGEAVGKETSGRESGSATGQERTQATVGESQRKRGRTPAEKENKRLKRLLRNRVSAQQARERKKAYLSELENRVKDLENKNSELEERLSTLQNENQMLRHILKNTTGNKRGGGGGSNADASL

B1: NST3 promoter Probe 1 (dsDNA)
DNA 1: CATGACATTACACGTCAAAAGAAATATGTCTTACGTCAGAACTTACGTAT
DNA 2: ATACGTAAGTTCTGACGTAAGACATATTTCTTTTGACGTGTAATGTCATG
B2: NST3 promoter Probe 2 (dsDNA)
DNA 1: AATTAACATGGTAGAATGTAGATGACGTAGATCATGAAACGAGTGTGTGA
DNA 2: TCACACACTCGTTTCATGATCTACGTCATCTACATTCTACCATGTTAATT

Target: T1, GST-HY5
Test: EMSA

| Binder | binding result |
| --- | --- |
| B1 | binds |
| B2 | binds |
